Reference: article PMC3543496 (FEBS letters, 2012)
Changes are numbered by the printed parent chain. In names and notes the source's numbering stands. Like-named read-outs stand apart in the source and are kept apart here.

B1: WT clathrin hub (bovine clathrin heavy chain aa1074-1675) (domain or fragment, UniProt P49951 1074-1675, looked up)
chain: KFDVNTSAVQVLIEHIGNLDRAYEFAERCNEPAVWSQLAKAQLQKGMVKEAIDSYIKADDPSSYMEVVQAANTSGNWEELVKYLQMARKKARESYVETELIFALAKTNRLAELEEFINGPNNAHIQQVGDRCYDEKMYDAAKLLYNNVSNFGRLASTLVHLGEYQAAVDGARKANSTRTWKEVCFACVDGKEFRLAQMCGLHIVVHADELEELINYYQDRGYFEELITMLEAALGLERAHMGMFTELAILYSKFKPQKMREHLELFWSRVNIPKVLRAAEQAHLWAELVFLYDKYEEYDNAIITMMNHPTDAWKEGQFKDIITKVANVELYYRAIQFYLEFKPLLLNDLLMVLSPRLDHTRAVNYFSKVKQLPLVKPYLRSVQNHNNKSVNESLNNLFITEEDYQALRTSIDAYDNFDNISLAQRLEKHELIEFRRIAAYLFKGNNRWKQSVELCKKDSLYKDAMQYASESKDTELAEELLQWFLQEEKRECFGACLFTCYDLLRPDVVLETAWRHNIMDFAMPYFIQVMKEYLTKVDKLDASESLRKEEEQATETQPIVYGQPQLMLTAGPSVAVPPQAPFGYGYTAPAYGQPQPGFGYSM
B2: C1573A clathrin hub (bovine clathrin heavy chain aa1074-1675, C1573A) (domain or fragment, UniProt P49951 1074-1675, looked up)
chain: B1 chain with C500A

How the values were obtained:
SEC-MALS [1] = target: the molecule itself; experiment: SEC-MALS
SEC-MALS [2] = target: the molecule itself; experiment: SEC-MALS; remark: listed apart in the source

| Protein | stoichiometry N (SEC-MALS [1]) | stoichiometry N (SEC-MALS [2]) |
| --- | --- | --- |
| B1 | 3 |  |
| B2 | ~2 | ~3 |
